Target: LysdesArg9BK (Homo sapiens, 3H label on peptide)
Assay: radioligand binding on HEK293 cells

B1: B1R (protein)
chain: MASSWPPLELQSSNQSQLFPQNATACDNAPEAWDLLHRVLPTFIISICFFGLLGNLFVLLVFLLPRRQLNVAEIYLANLAASDLVFVLGLPFWAENIWNQFNWPFGALLCRVINGVIKANLFISIFLVVAISQDRYRVLVHPMASRRQQRRRQARVTCVLIWVVGGLLSIPTFLLRSIQAVPDLNITACILLLPHEAWHFARIVELNILGFLLPLAAIVFFNYHILASLRTREEVSRTRCGGRKDSKTTALILTLVVAFLVCWAPYHFFAFLEFLFQVQAVRGCFWEDFIDLGLQLANFFAFTNSSLNPVIYVFVGRLFRTKVWELYKQCTPKSLAPISSSHRKEIFQLFWRN
With B1 the Kd was 1.3 nM.
